Assay results reported in IntAct's records for PubMed 39009827.

B1: Protein patched homolog 1 (Homo sapiens), Q13635 (parent)
chain: MASAGNAAEPQDRGGGGSGCIGAPGRPAGGGRRRRTGGLRRAAAPDRDYLHRPSYCDAAFALEQISKGKATGRKAPLWLRAKFQRLLFKLGCYIQKNCGKFLVVGLLIFGAFAVGLKAANLETNVEELWVEVGGRVSRELNYTRQKIGEEAMFNPQLMIQTPKEEGANVLTTEALLQHLDSALQASRVHVYMYNRQWKLEHLCYKSGELITETGYMDQIIEYLYPCLIITPLDCFWEGAKLQSGTAYLLGKPPLRWTNFDPLEFLEELKKINYQVDSWEEMLNKAEVGHGYMDRPCLNPADPDCPATAPNKNSTKPLDMALVLNGGCHGLSRKYMHWQEELIVGGTVKNSTGKLVSAHALQTMFQLMTPKQMYEHFKGYEYVSHINWNEDKAAAILEAWQRTYVEVVHQSVAQNSTQKVLSFTTTTLDDILKSFSDVSVIRVASGYLLMLAYACLTMLRWDCSKSQGAVGLAGVLLVALSVAAGLGLCSLIGISFNAATTQVLPFLALGVGVDDVFLLAHAFSETGQNKRIPFEDRTGECLKRTGASVALTSISNVTAFFMAALIPIPALRAFSLQAAVVVVFNFAMVLLIFPAILSMDLYRREDRRLDIFCCFTSPCVSRVIQVEPQAYTDTHDNTRYSPPPPYSSHSFAHETQITMQSTVQLRTEYDPHTHVYYTTAEPRSEISVQPVTVTQDTLSCQSPESTSSTRDLLSQFSDSSLHCLEPPCTKWTLSSFAEKHYAPFLLKPKAKVVVIFLFLGLLGVSLYGTTRVRDGLDLTDIVPRETREYDFIAAQFKYFSFYNMYIVTQKADYPNIQHLLYDLHRSFSNVKYVMLEENKQLPKMWLHYFRDWLQGLQDAFDSDWETGKIMPNNYKNGSDDGVLAYKLLVQTGSRDKPIDISQLTKQRLVDADGIINPSAFYIYLTAWVSNDPVAYAASQANIRPHRPEWVHDKADYMPETRLRIPAAEPIEYAQFPFYLNGLRDTSDFVEAIEKVRTICSNYTSLGLSSYPNGYPFLFWEQYIGLRHWLLLFISVVLACTFLVCAVFLLNPWTAGIIVMVLALMTVELFGMMGLIGIKLSAVPVVILIASVGIGVEFTVHVALAFLTAIGDKNRRAVLALEHMFAPVLDGAVSTLLGVLMLAGSEFDFIVRYFFAVLAILTILGVLNGLVLLPVLLSFFGPYPEVSPANGLNRLPTPSPEPPPSVVRFAMPPGHTHSGSDSSDSEYSSQTTVSGLSEELRHYEAQQGAGGPAHQVIVEATENPVFAHSTVVHPESRHHPPSNPRQQPHLDSGSLPPGRQGQQPRRDPPREGLWPPPYRPRRDAFEISTEGHSGPSNRARWGPRGARSHNPRNPASTAMGSSVPGYCQPITTVTASASVTVAVHPPPVPGPGRNPRGGLCPGYPETDHGLFEDPHVPFHVRCERRDSKVEVIELQDVECEERPRGSSSN
B2: Radial spoke head protein 4 homolog A (Homo sapiens), Q5TD94 (parent)
chain: MEDSTSPKQEKENQEELGETRRPWEGKTAASPQYSEPESSEPLEAKQGPETGRQSRSSRPWSPQSRAKTPLGGPAGPETSSPAPVSPREPSSSPSPLAPARQDLAAPPQSDRTTSVIPEAGTPYPDPLEQSSDKRESTPHHTSQSEGNTFQQSQQPKPHLCGRRDVSYNNAKQKELRFDVFQEEDSNSDYDLQQPAPGGSEVAPSMLEITIQNAKAYLLKTSSNSGFNLYDHLSNMLTKILNERPENAVDIFENISQDVKMAHFSKKFDALQNENELLPTYEIAEKQKALFLQGHLEGVDQELEDEIAENALPNVMESAFYFEQAGVGLGTDETYRIFLALKQLTDTHPIQRCRFWGKILGLEMNYIVAEVEFREGEDEEEVEEEDVAEERDNGESEAHEDEEDELPKSFYKAPQAIPKEESRTGANKYVYFVCNEPGRPWVKLPPVIPAQIVIARKIKKFFTGRLDAPIISYPPFPGNESNYLRAQIARISAGTHVSPLGFYQFGEEEGEEEEEAEGGRNSFEENPDFEGIQVIDLVESLSNWVHHVQHILSQGRCNWFNSIQKNEEEEEEEDEEKDDSDYIEQEVGLPLLTPISEDLEIQNIPPWTTRLSSNLIPQYAIAVLQSNLWPGAYAFSNGKKFENFYIGWGHKYSPDNYTPPVPPPVYQEYPSGPEITEMDDPSVEEEQAFRAAQEAVLLAAENEESEEDEDEEDDYD
B3: Myosin-9 (Homo sapiens), P35579 (parent)
chain: MAQQAADKYLYVDKNFINNPLAQADWAAKKLVWVPSDKSGFEPASLKEEVGEEAIVELVENGKKVKVNKDDIQKMNPPKFSKVEDMAELTCLNEASVLHNLKERYYSGLIYTYSGLFCVVINPYKNLPIYSEEIVEMYKGKKRHEMPPHIYAITDTAYRSMMQDREDQSILCTGESGAGKTENTKKVIQYLAYVASSHKSKKDQGELERQLLQANPILEAFGNAKTVKNDNSSRFGKFIRINFDVNGYIVGANIETYLLEKSRAIRQAKEERTFHIFYYLLSGAGEHLKTDLLLEPYNKYRFLSNGHVTIPGQQDKDMFQETMEAMRIMGIPEEEQMGLLRVISGVLQLGNIVFKKERNTDQASMPDNTAAQKVSHLLGINVTDFTRGILTPRIKVGRDYVQKAQTKEQADFAIEALAKATYERMFRWLVLRINKALDKTKRQGASFIGILDIAGFEIFDLNSFEQLCINYTNEKLQQLFNHTMFILEQEEYQREGIEWNFIDFGLDLQPCIDLIEKPAGPPGILALLDEECWFPKATDKSFVEKVMQEQGTHPKFQKPKQLKDKADFCIIHYAGKVDYKADEWLMKNMDPLNDNIATLLHQSSDKFVSELWKDVDRIIGLDQVAGMSETALPGAFKTRKGMFRTVGQLYKEQLAKLMATLRNTNPNFVRCIIPNHEKKAGKLDPHLVLDQLRCNGVLEGIRICRQGFPNRVVFQEFRQRYEILTPNSIPKGFMDGKQACVLMIKALELDSNLYRIGQSKVFFRAGVLAHLEEERDLKITDVIIGFQACCRGYLARKAFAKRQQQLTAMKVLQRNCAAYLKLRNWQWWRLFTKVKPLLQVSRQEEEMMAKEEELVKVREKQLAAENRLTEMETLQSQLMAEKLQLQEQLQAETELCAEAEELRARLTAKKQELEEICHDLEARVEEEEERCQHLQAEKKKMQQNIQELEEQLEEEESARQKLQLEKVTTEAKLKKLEEEQIILEDQNCKLAKEKKLLEDRIAEFTTNLTEEEEKSKSLAKLKNKHEAMITDLEERLRREEKQRQELEKTRRKLEGDSTDLSDQIAELQAQIAELKMQLAKKEEELQAALARVEEEAAQKNMALKKIRELESQISELQEDLESERASRNKAEKQKRDLGEELEALKTELEDTLDSTAAQQELRSKREQEVNILKKTLEEEAKTHEAQIQEMRQKHSQAVEELAEQLEQTKRVKANLEKAKQTLENERGELANEVKVLLQGKGDSEHKRKKVEAQLQELQVKFNEGERVRTELADKVTKLQVELDNVTGLLSQSDSKSSKLTKDFSALESQLQDTQELLQEENRQKLSLSTKLKQVEDEKNSFREQLEEEEEAKHNLEKQIATLHAQVADMKKKMEDSVGCLETAEEVKRKLQKDLEGLSQRHEEKVAAYDKLEKTKTRLQQELDDLLVDLDHQRQSACNLEKKQKKFDQLLAEEKTISAKYAEERDRAEAEAREKETKALSLARALEEAMEQKAELERLNKQFRTEMEDLMSSKDDVGKSVHELEKSKRALEQQVEEMKTQLEELEDELQATEDAKLRLEVNLQAMKAQFERDLQGRDEQSEEKKKQLVRQVREMEAELEDERKQRSMAVAARKKLEMDLKDLEAHIDSANKNRDEAIKQLRKLQAQMKDCMRELDDTRASREEILAQAKENEKKLKSMEAEMIQLQEELAAAERAKRQAQQERDELADEIANSSGKGALALEEKRRLEARIAQLEEELEEEQGNTELINDRLKKANLQIDQINTDLNLERSHAQKNENARQQLERQNKELKVKLQEMEGTVKSKYKASITALEAKIAQLEEQLDNETKERQAACKQVRRTEKKLKDVLLQVDDERRNAEQYKDQADKASTRLKQLKRQLEEAEEEAQRANASRRKLQRELEDATETADAMNREVSSLKNKLRRGDLPFVVPRRMARKGAGDGSDEEVDGKADGAEAKPAE
partner: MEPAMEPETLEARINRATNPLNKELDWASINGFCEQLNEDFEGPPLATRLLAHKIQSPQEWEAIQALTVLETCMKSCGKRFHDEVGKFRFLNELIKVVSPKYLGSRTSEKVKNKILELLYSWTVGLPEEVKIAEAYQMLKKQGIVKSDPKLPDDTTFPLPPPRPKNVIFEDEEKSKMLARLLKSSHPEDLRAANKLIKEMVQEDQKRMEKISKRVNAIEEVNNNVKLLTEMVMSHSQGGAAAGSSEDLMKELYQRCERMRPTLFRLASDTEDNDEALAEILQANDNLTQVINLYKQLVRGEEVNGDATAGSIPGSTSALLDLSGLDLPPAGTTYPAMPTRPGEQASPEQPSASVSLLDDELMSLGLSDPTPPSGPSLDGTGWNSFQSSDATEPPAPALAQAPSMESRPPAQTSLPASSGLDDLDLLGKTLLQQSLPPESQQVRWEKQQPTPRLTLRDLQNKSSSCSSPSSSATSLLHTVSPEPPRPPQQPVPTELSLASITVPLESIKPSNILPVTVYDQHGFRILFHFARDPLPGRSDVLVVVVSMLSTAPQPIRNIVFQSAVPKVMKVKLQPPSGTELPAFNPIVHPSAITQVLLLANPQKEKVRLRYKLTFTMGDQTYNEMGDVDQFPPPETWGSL
B4: Cell division control protein 45 homolog (Homo sapiens), O75419 (parent)
chain: MFVSDFRKEFYEVVQSQRVLLFVASDVDALCACKILQALFQCDHVQYTLVPVSGWQELETAFLEHKEQFHYFILINCGANVDLLDILQPDEDTIFFVCDTHRPVNVVNVYNDTQIKLLIKQDDDLEVPAYEDIFRDEEEDEEHSGNDSDGSEPSEKRTRLEEEIVEQTMRRRQRREWEARRRDILFDYEQYEYHGTSSAMVMFELAWMLSKDLNDMLWWAIVGLTDQWVQDKITQMKYVTDVGVLQRHVSRHNHRNEDEENTLSVDCTRISFEYDLRLVLYQHWSLHDSLCNTSYTAARFKLWSVHGQKRLQEFLADMGLPLKQVKQKFQAMDISLKENLREMIEESANKFGMKDMRVQTFSIHFGFKHKFLASDVVFATMSLMESPEKDGSGTDHFIQALDSLSRSNLDKLYHGLELAKKQLRATQQTIASCLCTNLVISQGPFLYCSLMEGTPDVMLFSRPASLSLLSKHLLKSFVCSTKNRRCKLLPLVMAAPLSMEHGTVTVVGIPPETDSSDRKNFFGRAFEKAAESTSSRMLHNHFDLSVIELKAEDRSKFLDALISLLS

Variants of: B1
Details: with ppia_human PPIA

Variant	effect of a mutation on the interaction
P1180Q	decreasing interaction strength

Variants of: B2
Details: with nedd4_human NEDD4, P46934
Sequence of nedd4_human NEDD4, P46934 (P46934 whole entry): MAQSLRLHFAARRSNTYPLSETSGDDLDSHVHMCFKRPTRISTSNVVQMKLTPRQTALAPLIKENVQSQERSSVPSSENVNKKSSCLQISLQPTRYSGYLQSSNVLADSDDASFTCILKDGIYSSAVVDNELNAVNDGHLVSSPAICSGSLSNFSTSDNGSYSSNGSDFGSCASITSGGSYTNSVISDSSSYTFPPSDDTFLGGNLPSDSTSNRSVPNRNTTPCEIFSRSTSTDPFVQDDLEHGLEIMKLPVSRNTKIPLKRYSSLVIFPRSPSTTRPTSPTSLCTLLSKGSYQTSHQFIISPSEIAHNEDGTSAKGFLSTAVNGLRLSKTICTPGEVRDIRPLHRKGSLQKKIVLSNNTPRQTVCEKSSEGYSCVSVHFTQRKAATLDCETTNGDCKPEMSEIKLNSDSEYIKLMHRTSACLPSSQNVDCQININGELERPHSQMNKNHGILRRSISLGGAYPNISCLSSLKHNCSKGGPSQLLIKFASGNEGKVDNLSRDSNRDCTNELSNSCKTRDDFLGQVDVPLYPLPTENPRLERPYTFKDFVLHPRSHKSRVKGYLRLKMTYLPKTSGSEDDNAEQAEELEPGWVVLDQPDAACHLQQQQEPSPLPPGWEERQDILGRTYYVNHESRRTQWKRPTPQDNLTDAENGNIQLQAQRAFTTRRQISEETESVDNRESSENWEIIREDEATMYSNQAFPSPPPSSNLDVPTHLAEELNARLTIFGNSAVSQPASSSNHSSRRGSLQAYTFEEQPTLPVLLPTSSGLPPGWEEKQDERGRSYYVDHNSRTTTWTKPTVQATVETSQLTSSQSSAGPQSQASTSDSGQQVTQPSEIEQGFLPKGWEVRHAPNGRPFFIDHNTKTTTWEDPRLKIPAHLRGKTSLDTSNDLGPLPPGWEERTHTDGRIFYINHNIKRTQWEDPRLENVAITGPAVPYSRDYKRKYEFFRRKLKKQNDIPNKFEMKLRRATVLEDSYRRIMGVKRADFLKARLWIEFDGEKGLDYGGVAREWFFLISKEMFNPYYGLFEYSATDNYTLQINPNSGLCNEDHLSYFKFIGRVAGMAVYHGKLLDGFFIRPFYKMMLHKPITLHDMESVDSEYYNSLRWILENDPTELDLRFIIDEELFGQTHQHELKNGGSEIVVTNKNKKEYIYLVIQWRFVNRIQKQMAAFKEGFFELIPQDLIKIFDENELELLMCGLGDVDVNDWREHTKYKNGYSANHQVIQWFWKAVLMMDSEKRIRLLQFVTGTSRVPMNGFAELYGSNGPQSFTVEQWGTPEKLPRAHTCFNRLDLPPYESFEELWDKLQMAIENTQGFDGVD

Variant	effect of a mutation on the interaction
P664S	decreasing interaction strength

Variants of: B3
Details: with gga1_human GGA1, Q9UJY5

Variant	effect of a mutation on the interaction
D1424H	decreasing interaction strength

Variants of: B4
Details: with ima3_human KPNA4, O00629
Sequence of ima3_human KPNA4, O00629 (O00629 whole entry): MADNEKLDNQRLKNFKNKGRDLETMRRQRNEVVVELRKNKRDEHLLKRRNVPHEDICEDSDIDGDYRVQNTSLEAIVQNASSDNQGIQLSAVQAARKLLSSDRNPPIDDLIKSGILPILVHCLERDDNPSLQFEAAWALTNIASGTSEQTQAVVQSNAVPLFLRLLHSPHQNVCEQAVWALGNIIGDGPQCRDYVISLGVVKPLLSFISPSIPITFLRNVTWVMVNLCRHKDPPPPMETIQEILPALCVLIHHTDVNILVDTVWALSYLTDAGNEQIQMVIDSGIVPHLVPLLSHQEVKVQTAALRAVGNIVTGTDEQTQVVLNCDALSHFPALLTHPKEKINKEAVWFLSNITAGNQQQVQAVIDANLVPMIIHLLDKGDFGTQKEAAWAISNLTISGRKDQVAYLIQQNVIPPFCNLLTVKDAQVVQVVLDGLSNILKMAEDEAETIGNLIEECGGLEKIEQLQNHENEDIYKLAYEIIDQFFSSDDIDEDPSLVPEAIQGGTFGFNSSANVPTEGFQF

Variant	effect of a mutation on the interaction
MFVSDFRKEFYEVVQSQRVLLFVASDVDALCACKILQALFQCDHVQYTLVPVSGWQELETAFLEHKEQFHYFILINCGANVDLLDILQPDEDTIFFVCDTHRPVNVVNVYNDTQIKLLIKQDDDLEVPAYEDIFRDEEEDEEHSGNDSDGSEPSEKCTRLEEEIVEQTMRRRQRREWEARRRDILFDYEQYEYHGTSSAMVMFELAWMLSKDLNDMLWWAIVGLTDQWVQDKITQMKYVTDVGVLQRHVSRHNHRNEDEENTLSVDCTRISFEYDLRLVLYQHWSLHDSLCNTSYTAARFKLWSVHGQKRLQEFLADMGLPLKQVKQKFQAMDISLKENLREMIEESANKFGMKDMRVQTFSIHFGFKHKFLASDVVFATMSLMESPEKDGSGTDHFIQALDSLSRSNLDKLYHGLELAKKQLRATQQTIASCLCTNLVISQGPFLYCSLMEGTPDVMLFSRPASLSLLSKHLLKSFVCSTKNRRCKLLPLVMAAPLSMEHGTVTVVGIPPETDSSDRKNFFGRAFEKAAESTSSRMLHNHFDLSVIELKAEDRSKFLDALISLLS [R157C]	disrupting interaction strength

Variants of: B4
Details: with ima8_human KPNA7, A9QM74
Sequence of ima8_human KPNA7, A9QM74 (A9QM74 whole entry): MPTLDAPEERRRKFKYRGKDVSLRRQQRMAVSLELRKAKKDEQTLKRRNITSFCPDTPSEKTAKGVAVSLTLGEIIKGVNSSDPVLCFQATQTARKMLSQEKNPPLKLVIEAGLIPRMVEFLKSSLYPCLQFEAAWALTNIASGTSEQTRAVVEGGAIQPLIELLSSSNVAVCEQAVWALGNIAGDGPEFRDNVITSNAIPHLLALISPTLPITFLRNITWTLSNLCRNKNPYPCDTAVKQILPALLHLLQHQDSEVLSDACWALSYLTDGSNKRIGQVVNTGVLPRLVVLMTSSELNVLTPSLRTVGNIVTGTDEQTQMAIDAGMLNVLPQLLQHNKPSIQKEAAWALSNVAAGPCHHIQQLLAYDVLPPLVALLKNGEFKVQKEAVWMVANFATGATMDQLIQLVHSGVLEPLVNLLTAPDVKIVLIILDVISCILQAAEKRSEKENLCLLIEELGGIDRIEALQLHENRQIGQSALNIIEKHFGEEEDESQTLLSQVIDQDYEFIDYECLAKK

Variant	effect of a mutation on the interaction
MFVSDFRKEFYEVVQSQRVLLFVASDVDALCACKILQALFQCDHVQYTLVPVSGWQELETAFLEHKEQFHYFILINCGANVDLLDILQPDEDTIFFVCDTHRPVNVVNVYNDTQIKLLIKQDDDLEVPAYEDIFRDEEEDEEHSGNDSDGSEPSEKCTRLEEEIVEQTMRRRQRREWEARRRDILFDYEQYEYHGTSSAMVMFELAWMLSKDLNDMLWWAIVGLTDQWVQDKITQMKYVTDVGVLQRHVSRHNHRNEDEENTLSVDCTRISFEYDLRLVLYQHWSLHDSLCNTSYTAARFKLWSVHGQKRLQEFLADMGLPLKQVKQKFQAMDISLKENLREMIEESANKFGMKDMRVQTFSIHFGFKHKFLASDVVFATMSLMESPEKDGSGTDHFIQALDSLSRSNLDKLYHGLELAKKQLRATQQTIASCLCTNLVISQGPFLYCSLMEGTPDVMLFSRPASLSLLSKHLLKSFVCSTKNRRCKLLPLVMAAPLSMEHGTVTVVGIPPETDSSDRKNFFGRAFEKAAESTSSRMLHNHFDLSVIELKAEDRSKFLDALISLLS [R157C]	disrupting interaction strength

Variants of: B4
Details: with ima3_human KPNA4, O00629
Remark: another data set of the same source

Variant	effect of a mutation on the interaction
MFVSDFRKEFYEVVQSQRVLLFVASDVDALCACKILQALFQCDHVQYTLVPVSGWQELETAFLEHKEQFHYFILINCGANVDLLDILQPDEDTIFFVCDTHRPVNVVNVYNDTQIKLLIKQDDDLEVPAYEDIFRDEEEDEEHSGNDSDGSEPSEKCTRLEEEIVEQTMRRRQRREWEARRRDILFDYEQYEYHGTSSAMVMFELAWMLSKDLNDMLWWAIVGLTDQWVQDKITQMKYVTDVGVLQRHVSRHNHRNEDEENTLSVDCTRISFEYDLRLVLYQHWSLHDSLCNTSYTAARFKLWSVHGQKRLQEFLADMGLPLKQVKQKFQAMDISLKENLREMIEESANKFGMKDMRVQTFSIHFGFKHKFLASDVVFATMSLMESPEKDGSGTDHFIQALDSLSRSNLDKLYHGLELAKKQLRATQQTIASCLCTNLVISQGPFLYCSLMEGTPDVMLFSRPASLSLLSKHLLKSFVCSTKNRRCKLLPLVMAAPLSMEHGTVTVVGIPPETDSSDRKNFFGRAFEKAAESTSSRMLHNHFDLSVIELKAEDRSKFLDALISLLS [R157C]	decreasing interaction strength
